Test results as given in US7919233B2, “Motif of the beclin protein which interacts with anti-apoptotic members of the Bcl-2 protein family, and uses” (Les Laboratoires Servier, priority 2005, dated 2011).

How the values were obtained:
Type in all cases: binding
Conditions in all cases: relative to the Beclin peptide according to the invention
Bcl-XL = Bcl-XL (Homo sapiens, UniProt Q07817); test: Ki by fluorescence polarisation: competition with the Bak BH3 carboxyfluorescein peptide for Bcl-XL
Method: (§1) The determination of Ki using fluorescence polarisation consists of measuring the competitive effect of the Beclin peptide on the interaction between the pro-apoptotic Bak peptide and anti-apoptotic members of the Bcl-2 protein family such as Bcl-XL, Bcl-2 or Bcl-W.
(§2) The following reagents are mixed together in the order stated: • a) competitor peptide at a final concentration of from 1 nM to 100 μM; • b) fluorescent peptide ligand (Bak BH3 carboxyfluorescein) at a final concentration of 15 nM; • c) anti-apoptotic member of the Bcl-2 protein family at a final concentration of 100 nM for Bcl-XL and of 1 μM for Bcl-2 and Bcl-W.
(§3) These reagents are dissolved in the interaction buffer (Na2HPO4 20 mM pH 7.4, EDTA 1 mM, NaCl 50 mM and pluronic acid F-68 0.05%).
(§4) The mixture is then incubated for 30 minutes at ambient temperature and the fluorescence polarisation is determined on a Fusion apparatus (Packard) (excitation at 485 nm and reading at 530 nm). The values are given in mP (unit of fluorescence polarisation).
(§5) The protocol for the determination of Ki using fluorescence polarisation is the same as the protocol described above.

Bcl-2 = Bcl-2 (Homo sapiens, UniProt P10415); test: Ki by fluorescence polarisation: competition with the Bak BH3 carboxyfluorescein peptide for Bcl-2
Method: as §1, §2, §3, §4, §5

Bcl-W = target: T1, Bcl-W (Homo sapiens, UniProt Q92843); test: Ki by fluorescence polarisation: competition with the Bak BH3 carboxyfluorescein peptide for Bcl-W
T1 sequence (Q92843 1-193): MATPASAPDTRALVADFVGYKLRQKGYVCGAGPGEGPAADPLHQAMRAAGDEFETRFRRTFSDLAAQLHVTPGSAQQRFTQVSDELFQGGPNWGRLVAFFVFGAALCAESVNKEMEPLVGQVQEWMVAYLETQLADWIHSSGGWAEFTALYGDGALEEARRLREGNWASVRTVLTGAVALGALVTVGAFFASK
Method: as §1, §2, §3, §4, §5

Chain of Bcl-XL (Q07817 whole entry): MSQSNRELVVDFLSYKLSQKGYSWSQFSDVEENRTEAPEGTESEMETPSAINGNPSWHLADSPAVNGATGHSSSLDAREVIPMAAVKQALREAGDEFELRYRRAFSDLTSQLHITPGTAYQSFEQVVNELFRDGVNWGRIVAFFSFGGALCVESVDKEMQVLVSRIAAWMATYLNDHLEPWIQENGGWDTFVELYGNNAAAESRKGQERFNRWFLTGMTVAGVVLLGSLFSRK
Chain of Bcl-2 (P10415 whole entry): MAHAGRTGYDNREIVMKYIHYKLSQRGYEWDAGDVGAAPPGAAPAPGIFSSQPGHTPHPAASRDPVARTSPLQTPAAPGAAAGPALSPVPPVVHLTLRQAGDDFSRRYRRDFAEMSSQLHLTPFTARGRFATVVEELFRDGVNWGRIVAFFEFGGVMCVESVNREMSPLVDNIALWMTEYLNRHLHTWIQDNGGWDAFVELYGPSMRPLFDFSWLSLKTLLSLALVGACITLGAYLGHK

competitive effect on the interaction between Bak peptide and Bcl-XL (Bcl-XL): loss of competitive effect
competitive effect on the interaction between Bak peptide and Bcl-2 (Bcl-2): loss of competitive effect
competitive effect on the interaction between Bak peptide and Bcl-W (Bcl-W): loss of competitive effect
Sequence: GTMENLSRRAKVTGDLFDIMSGQTDV (Mutated Beclin Peptide) [mutant Beclin protein (L116A)]
